Our source for the binding score values is PMC5454392, “Selective BET bromodomain inhibition as an antifungal therapeutic strategy” (Nature Communications, 2017).

Numbered stars: 1 amine (or outer) side, 2 acyl side, 3 side chain; on linkers, the order of the positions; unused ones are H or OH. Square brackets hold non-standard residues; d marks the D form. Ends that are not written are not given here. Arg(Me2a) = CN(C)C(=N)NCCC[C@H](N)C(=O)O; Kac = CC(=O)NCCCC[C@H](N[*:1])C(=O)[*:2]; Lys(Me3) = C[N+](C)(C)CCCC[C@H](N)C(=O)O; Arg(Me2s) = CN=C(NC)NCCC[C@H](N)C(=O)O; Lys(Me2) = CN(C)CCCC[C@H](N)C(=O)O; pS = N[C@@H](COP(=O)(O)O)C(=O)O; Cit = NC(=O)NCCC[C@H](N)C(=O)O; Lys(Me) = CNCCCC[C@H](N)C(=O)O; me2a = not defined here

First the molecules themselves.
B1: H3 1-19 (peptide)
chain: ARTKQTA[Arg(Me2s)][Lys(Me)][pS]TGGKAPRKQ
B2: H3 16-35 (peptide)
chain: PRKQLATKAARKSAPATGG
modifications: P R K Q L A T K A A R Kme2 S A P A T G G
B3: H3 1-19 (peptide)
chain: AR(me2s)TK(Me)QTAR(me2s)K(me3)STGGKAPRKQ
B4: H3 1-19 (peptide)
chain: ARTKQTARKSTGGKAPRKQ
modifications: A Rme2s T Kac Q T A Rme2s Kme3 S T G G K A P R K Q
B5: H3 1-19 (peptide)
chain: ARTKQTARKSTGGKAPRKQ
modifications: A R T K Q T A R Kac S T G G Kac A P R K Q
B6: H3 1-19 (peptide)
chain: ARTKQTARKSTGGKAPRKQ
modifications: A R T K Q T A Rme2a Kme3 pS pT G G K A P R K Q
B7: H4 1-19 (peptide)
chain: SGRGKGGKGLGKGGAKRHR
modifications: S G R G K G G Kac G L G K G G A K R H R
B8: H2B 1-19 (peptide)
chain: PDPAK(Ac)SAPAPKK(Ac)GSK(Ac)KAVT
B9: H3 26-45 (peptide)
chain: RKSAPATGGVKKPHRYRPG
modifications: not fully specified; histone peptide post-translational modifications (acetyl, methyl, phospho, citrulline) listed in columns 4-7 and embedded in the sequence text; N-terminus free or acetylated in column 8
B10: H3 1-19 (peptide)
chain: AR(me2a)TK(me2)QTAR(me2a)K(Me)STGGKAPRKQ
modifications: reading uncertain
B11: H3 1-19 (peptide)
chain: A[Arg(Me2s)]TKQTARKSTGGKAPRKQ
B12: H3 1-19 (peptide)
chain: ARTKQTARKSTGGKAPRKQ
modifications: A R T K Q T A R Kme2 S pT G G K A P R K Q
B13: H4 1-19 (peptide)
chain: SGRGKGGKGLGKGGAKRHR
modifications: S G Rme2s G Kac G G K G L G K G G A K R H R
B14: H3 1-19 (peptide)
chain: A[Arg(Me2a)]T[Kac]QTAR[Kac]STGGKAPRKQ
B15: H2a 1-19 (peptide)
chain: [pS]GRGKQGGK(Ac)ARAKAKSRSS
B16: background 01 (peptide)
chain: K[Lys(Me)][Lys(Me2)][Lys(Me3)]K(Ac)R[Arg(Me2s)]R[Arg(Me2a)]R[Cit]K[Lys(Me)]K(Ac)[Lys(Me3)]RK
B17: H3 1-19 (peptide)
chain: A[Arg(Me2s)]T[Kac]QTA[Arg(Me2s)][Lys(Me2)]STGGKAPRKQ
B18: H3 1-19 (peptide)
chain: ARTKQTARKSTGGKAPRKQ
modifications: A Rme2a T Kme1 Q T A Rme2a Kme1 S T G G K A P R K Q
B19: H3 1-19 (peptide)
chain: ARTK(Me)QTAR(me2s)K(me3)STGGKAPRKQ
B20: H4 1-19 (peptide)
chain: SGRGKGGKGLGKGGAKRHR
modifications: S G Rme2a G K G G K G L G K G G A K R H R
B21: H2a 1-19 (peptide)
chain: [pS]GRGK(Ac)QGGK(Ac)ARAKAKSRSS
B22: H2B 1-19 (peptide)
chain: PDPAKSAPAPKKG[pS]K(Ac)KAVT
B23: H4 1-19 (peptide)
chain: SGRGKGGKGLGKGGAKRHR
modifications: S G R G K G G K G L G Kac G G A Kac R H R
B24: H4 1-19 (peptide)
chain: SGRGKGGKGLGKGGAKRHR
modifications: S G R G Kac G G Kac G L G Kac G G A Kac R H R
B25: H3 1-19 (peptide)
chain: ARTKQTARKSTGGKAPRKQ
modifications: A R T K Q T A Rme2a Kme3 S pT G G K A P R K Q
B26: H2a 1-19 (peptide)
chain: SGRGKQGGK(Ac)ARAK(Ac)AKSRSS
B27: H4 1-19 (peptide)
chain: SGRGKGGKGLGKGGAKRHR
modifications: S G R G K G G K G L G Kac G G A K R H R
B28: H4 1-19 (peptide)
chain: SGRGKGGKGLGKGGAKRHR
modifications: pS G Rme2a G Kac G G Kac G L G K G G A K R H R
B29: H4 1-19 (peptide)
chain: SGRGKGGKGLGKGGAKRHR
modifications: pS G Rme2s G Kac G G K G L G K G G A K R H R
B30: H3 16-35 (peptide)
chain: PRKQLATKAAR(Me2s)K[pS]APATGG
B31: H2a 1-19 (peptide)
chain: SGRGK(Ac)QGGK(Ac)ARAK(Ac)AKSRSS
B32: H3 1-19 (peptide)
chain: ARTKQTARKSTGGKAPRKQ
modifications: A R T K Q T A Rme2s Kme3 pS T G G K A P R K Q
B33: H3 1-19 (peptide)
chain: ARTKQTARKSTGGKAPRKQ
modifications: A R T K Q T A Rme2s K S T G G K A P R K Q
B34: H3 1-19 (peptide)
chain: ARTKQTARKSTGGKAPRKQ
modifications: A R T K Q T A Rme2a Kme3 pS T G G K A P R K Q

In one assay the target is T1, CaBdf1 BD2 (GST-tagged, wild-type) (Candida albicans (strain SC5314 / ATCC …, UniProt Q5A4W8)).
T1 chain: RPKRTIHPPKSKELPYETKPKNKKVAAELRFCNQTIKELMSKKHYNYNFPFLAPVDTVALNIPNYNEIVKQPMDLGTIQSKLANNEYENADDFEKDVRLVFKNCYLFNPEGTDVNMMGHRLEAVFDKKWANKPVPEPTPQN
In words: histone peptide array (Active Motif MODified), 1 uM GST-tagged bromodomain, anti-GST detection, normalized mean intensity.
Molecule B1 gave a binding score of 0.00259.

Regarding B2, the binding score stood at 0.00666.

As to B3, the binding score stood at 0.00629.

As to B4, the binding score was 0.00555.

B5 gave a binding score of 0.0211.

As for B6, the binding score was determined as 0.0037.

In the case of B7, the binding score stood at 0.027.

Molecule B8 registered a binding score of 0.137.

B9 yielded a binding score of 0.00296.

With B10, the binding score came out at 0.00629.

Consider B11, for which the binding score came to 0.0037.

For B12, the binding score was 0.00185.

Turning to B13, the binding score worked out at 0.00555.

Consider B14, for which the binding score is 0.00851.

Turning to B15, the binding score was 0.0137.

On to B16, for which the binding score was 0.00629.

B17: the binding score is 0.00666.

Molecule B18 came in with a binding score of 0.00259.

In turn, B19 came in with a binding score of 0.00407.

B20 displayed a binding score of 0.0215.

B21 showed a binding score of 0.00925.

In the case of B22, the binding score stood at 0.145.

In turn, B23 registered a binding score of 0.0248.

Take B24: the binding score is 0.902.

In turn, B25 showed a binding score of 0.00555.

With B26, the binding score amounted to 0.0481.

On to B27, for which the binding score was 0.00851.

For B28, the binding score is 0.0396.

On to B29, for which the binding score turned out to be 0.00555.

Turning to B30, the binding score was 0.00444.

B31 showed a binding score of 0.00888.

In turn, B32 had a binding score of 0.00333.

B33 gave a binding score of 0.00148.

In turn, B34 gave a binding score of 0.00333.

A further assay has as its target T2, CaBdf1 BD1 (GST-tagged, wild-type) (Candida albicans (strain SC5314 / ATCC …, UniProt Q5A4W8)).
T2 chain: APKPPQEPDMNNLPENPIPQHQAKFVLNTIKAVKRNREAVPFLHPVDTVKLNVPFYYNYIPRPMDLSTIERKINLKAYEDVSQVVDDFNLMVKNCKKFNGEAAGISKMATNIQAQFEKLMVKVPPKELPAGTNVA
The description is as above.
Consider B1, for which the binding score worked out at 0.00508.

For the molecule B2, the binding score came out at 0.00254.

For the molecule B3, the binding score was 0.0029.

B4 registered a binding score of 0.00834.

B5 had a binding score of 0.095.

B6 registered a binding score of 0.00326.

As to B7, the binding score stood at 0.0344.

B8: the binding score turned out to be 0.0616.

With B9, the binding score came to 0.00508.

As for B10, the binding score was determined as 0.00363.

B11: the binding score was 0.000725.

The molecule B12 came in with a binding score of 0.00544.

As to B13, the binding score was determined as 0.0225.

As to B14, the binding score worked out at 0.046.

Turning to B15, the binding score came to 0.0174.

As for B16, the binding score stood at 0.00906.

In turn, B17 had a binding score of 0.00725.

Molecule B18 showed a binding score of 0.00363.

Turning to B19, the binding score is 0.00435.

In turn, B20 returned a binding score of 0.00906.

In the case of B21, the binding score is 0.0381.

Molecule B22 gave a binding score of 0.0914.

B23 gave a binding score of 0.0743.

In turn, B24 had a binding score of 0.471.

In turn, B25 had a binding score of 0.00653.

In turn, B26 had a binding score of 0.178.

As for B27, the binding score turned out to be 0.033.

Consider B28, for which the binding score came to 0.0312.

B29 had a binding score of 0.0131.

Turning to B30, the binding score stood at 0.00181.

B31 had a binding score of 0.0591.

Molecule B32 came in with a binding score of 0.00508.

Regarding B33, the binding score worked out at 0.00218.

Regarding B34, the binding score was 0.00254.
